Reference: patent publication US20250090639A1, “CONTROLLED-RELEASE CNP AGONISTS WITH LOW INITIAL NPR-B ACTIVITY” (priority 2016, published 2025)

Experiments:
[1] = Evaluation of cardiovascular effects in the conscious telemetered mouse (subcutaneous administration); type: in vivo, Male Crl: CD1(1CR) mice; details: 800 μg CNP-38 (eq)/kg sc
Description: Male Crl: CD1(1CR) mice (age range 8-13 weeks and body weight range 27.3-35.6 g at start of dosing) were surgically implanted with a TA11PA-C10 telemetry transmitter (Data Sciences International (DSI)) in the carotid artery. The body of the transmitter was placed subcutaneously in the lateral flank of the mouse. The mice were dosed subcutaneously in a latin square crossover design with at least 72 hours between dosing occasions. […] At least four mice were included at each dose level. Blood pressure (systolic (SAP), diastolic (DAP) and mean (MAP) and heart rate (HR, derived from blood pressure), were recorded using a digital data capture system linked with a DSITM Ponemah data acquisition and analysis system. The capture system allowed recording of the cardiovascular parameters whilst the mice were in individual cages. On the day of each test session the animals were weighed and a predose recording was performed for at least 60 min prior to dosing. Each mouse was returned to the home cage and the cardiovascular parameters were recorded for approximately 48 hours postdose. Blood pressure and HR were reported at the following time points: −30, −20, −10, 5, 15 and 30 min postdose and 1, 2, 6, 12, 18, 24, 30, 36, 42 and 48 hours postdose. Each time point was presented as the average value of five minute's recording prior to the time point. […]

recombinant human NEP = biological target: T1, recombinant human NEP (Homo sapiens, UniProt P08473); experiment: Digest of CNP variants by Neutral Endopeptidase in vitro; type: in vitro ADME; details: 100 μg CNP equivalents/mL, pH 7.4, 37° C., up to 4 days, normalized to mean CNP-34 or CNP-38 half life
T1 construct: purchased Enzo Life Sciences GmbH, Lörrach, Germany
T1 sequence (P08473 whole entry): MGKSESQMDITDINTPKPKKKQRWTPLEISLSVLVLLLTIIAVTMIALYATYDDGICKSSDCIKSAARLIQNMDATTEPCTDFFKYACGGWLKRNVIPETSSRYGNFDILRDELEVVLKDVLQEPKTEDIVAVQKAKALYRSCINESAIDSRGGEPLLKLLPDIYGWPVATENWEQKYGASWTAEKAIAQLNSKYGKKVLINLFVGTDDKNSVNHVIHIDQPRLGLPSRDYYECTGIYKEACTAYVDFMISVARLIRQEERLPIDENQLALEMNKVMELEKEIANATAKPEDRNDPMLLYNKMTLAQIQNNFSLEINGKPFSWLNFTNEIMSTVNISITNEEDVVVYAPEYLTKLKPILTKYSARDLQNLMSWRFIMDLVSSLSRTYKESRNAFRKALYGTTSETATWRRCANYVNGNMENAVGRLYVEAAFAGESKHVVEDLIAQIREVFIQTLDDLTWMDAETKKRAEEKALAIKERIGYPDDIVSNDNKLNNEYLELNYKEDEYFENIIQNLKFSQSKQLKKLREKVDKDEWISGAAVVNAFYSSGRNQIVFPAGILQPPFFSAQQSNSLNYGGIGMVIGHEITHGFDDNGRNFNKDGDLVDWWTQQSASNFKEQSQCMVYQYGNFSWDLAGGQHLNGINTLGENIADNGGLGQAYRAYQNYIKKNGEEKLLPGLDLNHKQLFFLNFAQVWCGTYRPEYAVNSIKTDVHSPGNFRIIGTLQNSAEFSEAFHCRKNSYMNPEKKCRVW
Description: Samples were taken at different time intervals. […] The resulting reaction products were assigned using HPLC-MS.

[2] = Pharmacokinetic profile of conjugate 11i after subcutaneous single-dose administration to cynomolgus monkeys; type: in vivo; details: single s.c. 40 μg CNP-38 eq/kg
Description: As internal standard deuterated CNP-38 conjugate was used.
After 3 hours incubation at 37° C. […] 10 μL were injected into the UHPLC-MS system.

Compound | half life norm. (recombinant human NEP) | other results
CC[C@H](C)[C@@H]1NC(=O)[C@H](CCCNC(=N)N)NC(=O)[C@H](CC(=O)O)NC(=O)[C@H](CC(C)C)NC(=O)[C@H](CCCCN)NC(=O)[C@H](CC(C)C)NC(=O)CNC(=O)[C@H](Cc2ccccc2)NC(=O)[C@@H](NC(=O)CNC(=O)[C@H](CCCCN)NC(=O)[C@H](CO)NC(=O)[C@H](CC(C)C)NC(=O)CNC(=O)[C@H](CCCCN)NC(=O)[C@H](CCCCN)NC(=O)[C@H](CC(N)=O)NC(=O)[C@H](C)NC(=O)CNC(=O)[C@H](CCCCN)NC(=O)[C@H](Cc2ccc(O)cc2)NC(=O)[C@H](CCCCN)NC(=O)[C@H](CCCNC(=N)N)NC(=O)[C@H](C)NC(=O)[C@H](CC(N)=O)NC(=O)[C@@H]2CCCN2C(=O)[C@H](Cc2c[nH]cn2)NC(=O)[C@H](CCC(=O)O)NC(=O)[C@H](CCC(N)=O)NC(=O)[C@@H](N)CC(C)C)CSSC[C@@H](C(=O)O)NC(=O)CNC(=O)[C@H](CC(C)C)NC(=O)CNC(=O)[C@H](CO)NC(=O)[C@H](CCSC)NC(=O)[C@H](CO)NC(=O)CNC1=O [CNP-38, reference compound] | – | effect on HR [1]: not impacted; effect on MAP / blood pressure ([1]; 5, 15 and 30 min post dose): significant decrease in MAP
Permanent Lys16 CNP-34 PEG 5 kDa Conjugate [Conjugate 17e] | 54.23 h | –
Permanent Lys22 CNP-34 PEG 5 kDa Conjugate [Conjugate 18e] | 38.87 h | –
Permanent Lys26 CNP-38 PEG4×10 kDa Conjugate [Conjugate 12g] | Almost no proteolysis | –
Permanent Lys26 CNP-38 PEG 5 kDa Conjugate [Conjugate 19e] | 62.76 h | –
Permanent N-Terminal CNP-34 PEG 5 kDa Conjugate [Conjugate 14e] | Almost no proteolysis | –
Permanent N-Terminal CNP-38 PEG 5 kDa Conjugate [Conjugate 15e] | Almost no proteolysis | –
Reversible Lys26 CNP-38 PEG4×10 kDa Conjugate [Conjugate 11i] | – | tolerability [2]: well tolerated
